# Measurements from article PMC3741208.
# Experiments:
# [1] = target: bovine α-thrombin (bovine); experiment: enzyme inhibition kinetics (chromogenic substrate); 1 nM bovine α-thrombin, 0-200 µM Tos-Gly-Pro-Arg-p-nitroanilide, 0-800 nM madanin; 37 °C, 50 mM Tris-HCl pH 8.0, 50 mM NaCl, 1 mg/ml bovine serum albumin; fitted to the competitive inhibition model
# [2] = target: bovine α-thrombin (bovine)
substance,measurement,setting,value
"madanin-1 (mature, recombinant) (natural protein)",Ki,[1],55.6 nM
same,"inhibition of thrombin amidolytic activity (%), 1 nM thrombin, 50 µM Tos-Gly-Pro-Arg-p-nitroanilide, 1 µM inhibitor, after 120 min",[2],43.8%
madanin-1 fragment 1-21 (peptide),"inhibition of thrombin amidolytic activity (%), 1 nM thrombin, 50 µM Tos-Gly-Pro-Arg-p-nitroanilide, 1 µM fragment, after 120 min",[2],4.6%
same,"prolongation (fold) of thrombin time of human plasma, 10 µM fragment (17 s against 17 s); competition with fibrinogen for thrombin; species of the assay's thrombin not stated",human α-thrombin (human),1 fold
madanin-1 fragment 22-54 (peptide),"inhibition of thrombin amidolytic activity (%), 1 nM thrombin, 50 µM Tos-Gly-Pro-Arg-p-nitroanilide, 1 µM fragment, after 120 min",[2],5.77%
same,"prolongation (fold) of thrombin time of human plasma, 10 µM fragment (20 s against 17 s); competition with fibrinogen for thrombin; species of the assay's thrombin not stated",human α-thrombin (human),1.18 fold
madanin-1 fragment 55-60 (peptide),"prolongation (fold) of thrombin time of human plasma, 10 µM fragment (17 s against 17 s); competition with fibrinogen for thrombin; species of the assay's thrombin not stated",human α-thrombin (human),1 fold
"madanin-2 (mature, recombinant) (natural protein)",Ki,[1],31.6 nM
same,"inhibition of thrombin amidolytic activity (%), 1 nM thrombin, 50 µM Tos-Gly-Pro-Arg-p-nitroanilide, 1 µM inhibitor, after 120 min",[2],47.2%
madanin-2 fragment 1-21 (peptide),"inhibition of thrombin amidolytic activity (%), 1 nM thrombin, 50 µM Tos-Gly-Pro-Arg-p-nitroanilide, 1 µM fragment, after 120 min",[2],5.83%
same,"prolongation (fold) of thrombin time of human plasma, 10 µM fragment (18 s against 17 s); competition with fibrinogen for thrombin; species of the assay's thrombin not stated",human α-thrombin (human),1.06 fold
madanin-2 fragment 22-55 (peptide),"inhibition of thrombin amidolytic activity (%), 1 nM thrombin, 50 µM Tos-Gly-Pro-Arg-p-nitroanilide, 1 µM fragment, after 120 min",[2],6.11%
same,"prolongation (fold) of thrombin time of human plasma, 10 µM fragment (18 s against 17 s); competition with fibrinogen for thrombin; species of the assay's thrombin not stated",human α-thrombin (human),1.06 fold
madanin-2 fragment 56-61 (peptide),"prolongation (fold) of thrombin time of human plasma, 10 µM fragment (17 s against 17 s); competition with fibrinogen for thrombin; species of the assay's thrombin not stated",human α-thrombin (human),1 fold
